Test results reported in patent US20190144917.

T1: C1-NPs: fluorescein-conjugated MMP substrate peptide C1 (FAM-sk-PLGLEEA-GC) coupled to iron oxide nanoparticles (not fully specified)
T1 chain: SKPLGLEEAGC

T2: S2: Biotin-CGPVPLSLVMK(Cy7)eGvndneeGffsar-NH2
T2 chain: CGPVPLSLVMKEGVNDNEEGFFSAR

T3: alternate substrate/reporter peptide eGvndneeGffsarKsRLVGEGC (second substrate RLVGEGC), unmodified
T3 chain: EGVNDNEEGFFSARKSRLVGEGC

T4: alternate substrate/reporter peptide eGvndneeGffsarKsRLVGEGC veiled with DMNPE
T4 chain: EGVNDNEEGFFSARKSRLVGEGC

B1: recombinant MMP1 (protein)
chain: FVLTEGNPRWEQTHLTYRIENYTPDLPRADVDHAIEKAFQLWSNVTPLTFTKVSEGQADIMISFVRGDHRDNSPFDGPGGNLAHAFQPGPGIGGDAHFDEDERWTNNFREYNLHRVAAHELGHSLGLSHSTDIGALMYPSYTFSGDVQLAQDDIDGIQAIYGRSQNPVQ
B2: recombinant MMP7 (protein)
chain: YSLFPNSPKWTSKVVTYRIVSYTRDLPHITVDRLVSKALNMWGKEIPLHFRKVVWGTADIMIGFARGAHGDSYPFDGPGNTLAHAFAPGTGLGGDAHFDEDERWTDGSSLGINFLYAATHELGHSLGMGHSSDPNAVMYPTYGNGDPQNFKLSQDDIKGIQKLYGKRSNSRKK
B3: plasmin (protein)
chain: KVYLSECKTGNGKNYRGTMSKTKNGITCQKWSSTSPHRPRFSPATHPSEGLEENYCRNPDNDPQGPWCYTTDPEKRYDYCDILECEEECMHCSGENYDGKISKTMSGLECQAWDSQSPHAHGYIPSKFPNKNLKKNYCRNPDRELRPWCFTTDPNKRWELCDIPRCTTPPPSSGPTYQCLKGTGENYRGNVAVTVSGHTCQHWSAQTPHTHNRTPENFPCKNLDENYCRNPDGKRAPWCHTTNSQVRWEYCKIPSCDSSPVSTEQLAPTAPPELTPVVQDCYHGDGQSYRGTSSTTTTGKKCQSWSSMTPHRHQKTPENYPNAGLTMNYCRNPDADKGPWCFTTDPSVRWEYCNLKKCSGTEASVVAPPPVVLLPDVETPSEEDCMFGNGKGYRGKRATTVTGTPCQDWAAQEPHRHSIFTPETNPRAGLEKNYCRNPDGDVGGPWCYTTNPRKLYDYCDVPQCAAPSFDCGKPQVEPKKCPGRVVGGCVAHPHSWPWQVSLRTRFGMHFCGGTLISPEWVLTAAHCLEKSPRPSSYKVILGAHQEVNLEPHVQEIEVSRLFLEPTRKDIALLKLSSPAVITDKVIPACLPSPNYVVADRTECFITGWGETQGTFGAGLLKEAQLPVIENKVCNRYEFLNGRVQSTELCAGHLAGGTDSCQGDSGGPLVCFEKDKYILQGVTSWGLGCARPNKPGVYVRVSRFVTWIEGVMRNN

Key:
[1] = molecular target: T1, C1-NPs: fluorescein-conjugated MMP …
[2] = molecular target: T2, S2: …
[3] = molecular target: T3, alternate substrate/reporter peptide …
[4] = molecular target: T4, alternate substrate/reporter peptide …

Protein | proteolysis (fluorescence dequenching) [1] | relative proteolysis (Cy7 signal after streptavidin depletion of uncleaved peptide) [2] | proteolysis [3] | proteolysis [4]
B1 | significantly cleaved by MMP13, 7, 1, and 9 |  |  | 
B2 | significantly cleaved by MMP13, 7, 1, and 9 | cleaved efficiently by MMP7 and MMP19 |  | 
B3 |  |  | proteolysis by plasmin | reduced proteolysis by plasmin, which was recovered by UV exposure
